T1: human LAG-3 domain 1-2 Fc fusion, point mutation #67 R127A (human, UniProt P18627 23-266)
T1 construct: not shown: human IgG1 Fc, AA P101-K330
T1 sequence: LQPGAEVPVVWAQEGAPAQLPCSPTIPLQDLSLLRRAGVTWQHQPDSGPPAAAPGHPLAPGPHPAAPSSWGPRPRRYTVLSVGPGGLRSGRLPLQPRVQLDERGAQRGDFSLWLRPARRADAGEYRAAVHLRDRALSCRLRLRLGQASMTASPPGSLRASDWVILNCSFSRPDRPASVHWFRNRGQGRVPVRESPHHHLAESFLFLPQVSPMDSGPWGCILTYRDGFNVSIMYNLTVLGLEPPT

T2: human LAG-3 domain 1-2 Fc fusion, point mutation #78 R154A (human, UniProt P18627 23-266)
T2 construct: not shown: human IgG1 Fc, AA P101-K330
T2 sequence: T1 sequence with A105R, R132A

T3: human LAG-3 domain 1-2 Fc fusion, point mutation #1 A40S (human, UniProt P18627 23-266)
T3 construct: not shown: human IgG1 Fc, AA P101-K330
T3 sequence: T1 sequence with A18S, A105R

T4: human LAG-3 domain 1-2 Fc fusion, point mutation #5 P46A (human, UniProt P18627 23-266)
T4 construct: not shown: human IgG1 Fc, AA P101-K330
T4 sequence: T1 sequence with P24A, A105R

T5: human LAG-3 domain 1-2 Fc fusion, point mutation #11 L56A (human, UniProt P18627 23-266)
T5 construct: not shown: human IgG1 Fc, AA P101-K330
T5 sequence: T1 sequence with L34A, A105R

T6: human LAG-3 domain 1-2 Fc fusion, point mutation #13 R58A (human, UniProt P18627 23-266)
T6 construct: not shown: human IgG1 Fc, AA P101-K330
T6 sequence: T1 sequence with R36A, A105R

T7: human LAG-3 domain 1-2 Fc fusion, point mutation #20 A73S (human, UniProt P18627 23-266)
T7 construct: not shown: human IgG1 Fc, AA P101-K330
T7 sequence: T1 sequence with A51S, A105R

T8: human LAG-3 domain 1-2 Fc fusion, point mutation #22 A75S (human, UniProt P18627 23-266)
T8 construct: not shown: human IgG1 Fc, AA P101-K330
T8 sequence: T1 sequence with A53S, A105R

T9: human LAG-3 domain 1-2 Fc fusion, point mutation #25 H78A (human, UniProt P18627 23-266)
T9 construct: not shown: human IgG1 Fc, AA P101-K330
T9 sequence: T1 sequence with H56A, A105R

B1: Fab fragment of antibody 15572 (Fab, V domains shown, not shown: a dimerising Fc or GST)
VH: QLQLQESGPGLVKPSETLSLTCTVSGDSISSSSYYWGWIRQPPGKGLEWIGSIFYSGNTYYNPSLKSRVTISVDTSKNQFSLKLSSVTAADTAVYYCAREDDFLTDYYGAFDIWGQGTMVTVSS
VL: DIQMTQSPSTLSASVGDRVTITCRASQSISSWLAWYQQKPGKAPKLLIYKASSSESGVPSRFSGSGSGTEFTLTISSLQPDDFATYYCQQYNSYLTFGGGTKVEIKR
notes: monomeric Fab made by GingisKHAN digestion of the IgG1
B2: Fab fragment of antibody 15011 (Fab, V domains shown, not shown: a dimerising Fc or GST)
VH: EVQLLESGGGLVQPGGSLRLSCAASGFDFRSYAMMWVRQAPGKGLEWVGGINGEVGGSNTYYAPAVKGRATISRDNSKNTLYLQMNSLRAEDTAVYYCVKGAGACGICNDDIDAWGQGTLVTVSS
VL: SYELTQDPAVSVALGQTVRITCSGAGSYAGSYYYGWHQQKPGQAPVTVIYDNDKRPSNIPDRFSGSSSGNTASLTITGAQAEDEADYYCGSTNDNDDGGLFGSGTKVTVLG
notes: as for B1
B3: Fab fragment of antibody 15532 (Fab, V domains shown, not shown: a dimerising Fc or GST)
VH: QVQLQQWGAGLLRPSETLSLTCAVYGESFSGYYWNWIRQPPGKGLEWIGEINHSGSTNYNPSLKSRVTISVDTSKTQFSLKLSSVTAADTAVYYCARGWDLLDWNDYWNEYWGQGTLVTVSS
VL: EIVLTQSPATLSLSPGERATLSCRASQSVSSYLAWYQQKPGQAPRLLIYDASNRATGIPARFSGSGSGTDFTLTISSLEPEDFAVYYCQQRSNWPLTFGGGTKVEIKR
notes: as for B1
B4: Fab fragment of antibody 15431 (Fab, V domains shown, not shown: a dimerising Fc or GST)
VH: QVQLQQSGPGLVKPSQTLSLTCAISGDSVSSNSAAWNWIRQSPSRGLEWLGRTYYRSKWYNDYAVSVKSRITINPDTSKNQFSLQLNSVTPEDTAVYYCARDDDWNDFDYWGQGTLVTVSS
VL: B3 VL
notes: as for B1

These results are taken from patent US20220363757A1 (SYMPHOGEN A S, published 2022).

Where a chain is given by its changes, count along the chain named.

The first test addresses T1, human LAG-3 domain 1-2 Fc fusion, point …. Nature of the test: SPR, Fab over captured mutant LAG-3-Fc.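 Further: fc fusion variants captured on anti-human IgG Fc sensor, Fab injected with association then dissociation phases, KD obtained from Langmuir one-to-one fit.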 A general note: Surface plasmon resonance follows binding to a sensor surface in real time, without labels.
On to B1, for which the “KD mutant/KD wild type” value turned out to be 0.5 fold.
Turning to B2, the “KD mutant/KD wild type” value was 0.9 fold.
Consider B3, for which the “KD mutant/KD wild type” value was 0.6 fold.
Same read-out and setting: for B4 the value was 0.9 fold.

The target of another test is T2, human LAG-3 domain 1-2 Fc fusion, point …. Nature of the test: SPR, Fab over captured mutant LAG-3-Fc.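 Further: fc fusion variants captured on anti-human IgG Fc sensor, Fab injected with association then dissociation phases, KD obtained from Langmuir one-to-one fit.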
On to B1, for which the “KD mutant/KD wild type” value turned out to be 0.8 fold.
Take B2: the “KD mutant/KD wild type” value amounted to 1.2 fold.
Still for that read-out and setting: under B3 stands 0.8 fold; under B4, 1 fold.

For another test, the target named is T3, human LAG-3 domain 1-2 Fc fusion, point …. Nature of the test: SPR, Fab over captured mutant LAG-3-Fc.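 Further: fc fusion variants captured on anti-human IgG Fc sensor, Fab injected with association then dissociation phases, KD obtained from Langmuir one-to-one fit.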
On to B1, for which the binding result is “no binding (tested: 300 nM)”.
In the case of B2, the “KD mutant/KD wild type” value was determined as 0.6 fold.
Same read-out and setting: for B3 the value was 4.4 fold.
In the case of B4, the binding result is “no binding (tested: 300 nM)”.

The next test has as its target T4, human LAG-3 domain 1-2 Fc fusion, point …. Nature of the test: SPR, Fab over captured mutant LAG-3-Fc.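 Further: fc fusion variants captured on anti-human IgG Fc sensor, Fab injected with association then dissociation phases, KD obtained from Langmuir one-to-one fit.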
Regarding B1, the binding result is “no binding (tested: 300 nM)”.
Regarding B2, the “KD mutant/KD wild type” value came to 0.7 fold.
On the same count and under the same terms, under B3 stands 4 fold.
In the case of B4, the binding result is “no binding (tested: 300 nM)”.

A further test addresses T5, human LAG-3 domain 1-2 Fc fusion, point …. Nature of the test: SPR, Fab over captured mutant LAG-3-Fc.
As for B1, the “KD mutant/KD wild type” value came out at 0.7 fold.
Same read-out and setting: under B2 stands 0.7 fold; under B3, 1.2 fold.
The same measure, in the same setting: for B4 the value was 0.3 fold.

The next test addresses T6, human LAG-3 domain 1-2 Fc fusion, point …. The test is described as follows: SPR, Fab over captured mutant LAG-3-Fc.
Turning to B1, the “KD mutant/KD wild type” value turned out to be 0.8 fold.
Still for that read-out and setting: under B2 stands 1.7 fold.
On the same count and under the same terms, under B3 stands 0.8 fold.
On the same count and under the same terms, under B4 stands 1.2 fold.

The target in the next test is T7, human LAG-3 domain 1-2 Fc fusion, point …. The test is described as follows: SPR, Fab over captured mutant LAG-3-Fc.
B1: the “KD mutant/KD wild type” value is 0.6 fold.
The same measure, in the same setting: under B2 stands 0.7 fold; under B3, 0.7 fold.
On the same count and under the same terms, under B4 stands 0.6 fold.

The next test concerns the target T8, human LAG-3 domain 1-2 Fc fusion, point …. Nature of the test: SPR, Fab over captured mutant LAG-3-Fc.
Consider B1, for which the “KD mutant/KD wild type” value came out at 0.7 fold.
On to B2, for which the “KD mutant/KD wild type” value turned out to be 0.8 fold.
Regarding B3, the “KD mutant/KD wild type” value came out at 0.9 fold.
Same read-out and setting: for B4 the value was 0.8 fold.

In the next test the target is T9, human LAG-3 domain 1-2 Fc fusion, point …. The test is described as follows: SPR, Fab over captured mutant LAG-3-Fc.
Regarding B1, the “KD mutant/KD wild type” value was 0.5 fold.
The same measure, in the same setting: for B2 the value was 0.7 fold.
Same read-out and setting: under B3 stands 0.9 fold; under B4, 0.4 fold.
